From US8143228B2, “Agents capable of downregulating an MSF-A dependent HIF-1α and use thereof in cancer treatment” (Medical Research Fund of Tel Aviv Sourasky Medical Center, priority 2004, dated 2012) come the findings set out here.

The target of one experiment is T1, HIF-1α protein (Homo sapiens, UniProt Q16665).
T1 construct: expressed in transfected cells; host or cells: HEK 293
Briefly: Co-immunoprecipitation / immunoblotting with HIF-1α in transfected HEK 293 cells. To be noted: transient transfection. It counts as binding. On the procedure:
FIGS. 9a-c are Western blot analyses of FLAG (MSF-A; FIGS. 9a and b) and HIF-1α (FIG. 9c) depicting the interaction between HIF-1α and the WT or deleted forms of MSF-A. HEK 293 cells were transiently co-transfected with expression vector encoding Flag-MSF-A (WT; p3xFlag-MSF-A), Flag-ΔG (AG; p3xFlag-ΔG-MSF-A), Flag-ΔN (ΔN; p3xFlag-ΔN-MSF-A) or empty vector (EV; p3xFlag-cmv-25). After 48 hours, the cells were lysed, subjected for immunoprecipitation (IP) using HIF-1α antibody and then immunoblotted (IB) with HIF-1α or Flag antibodies. FIG. 9a—whole cell extracts (WCE) subjected to IB with the Flag antibody (MSF-A); FIG. 9b—IP prepared by the HIF-1α antibody were subjected to IB with the Flag antibody (MSF-A); FIG. 9c—IP prepared by the HIF-1α antibody were subjected to IB with the HIF-1α antibody.
Immunoblotting—Proteins (30-60 μg/lane) from WCEs were resolved by 7.5% SDS-PAGE, electro-blotted to nitrocellulose membranes and incubated with the indicated primary antibodies, followed by horseradish peroxidase-conjugated secondary antiserum (Amersham Biosciences, Piscataway, N.J.). Immunoreactivity was visualized by Amersham enhanced chemiluminescence reagent (Amersham Biosciences, Piscataway, N.J.). For sequential blotting with additional antibodies, the membranes were stripped from the first primary antibody using a restore Western blot stripping buffer (Pierce, Rockford, Ill.) and were re-probed using the second primary antibody as indicated.
Immunoprecipitation—Cells were washed twice with ice-cold PBS, lysed in 20 mM Na-HEPES, pH 7.5, 0.5% Nonidet P-40, 0.1M NaCl, 2 mM EDTA, 10% Glycerol and 2 mM DTT supplemented with protease and phosphatase inhibitors, and were subjected to immunoprecipitation using anti-HIF-1α antibody and protein G-agarose beads (Pierce, Ill.) according to the manufacturer's instructions.
To confirm the interaction between the HIF-1α and the MSF-A proteins, HEK 293 cells were transiently co-transfected with the p3xFlag-MSF-A and the pcDNA3.1-HIF-1α vectors, and were grown for 24 hours under normoxic conditions (i.e., conditions of 20% oxygen), following which whole cell extracts (WCE) were subjected to co-immunoprecipitation (IP) using anti-FLAG or anti-HIF-1α antibodies. Following IP, the proteins were subjected to SDS-PAGE and immunoblotting (IB) using the counterpart antibody. As is shown in FIGS. 3a-d, following transfection with both expression vectors (i.e., pcDNA3.1-HIF-1α and p3xFlag-MSF-A) immunoprecipitates generated using either the anti-HIF-1α antibody or the anti-Flag antibody included the reciprocal proteins, i.e., the Flag-MSF-A or HIF-1α proteins, respectively.

Another experiment deals with PC-3 xenograft tumors. The experiment is described as follows: Prostate cancer subcutaneous xenograft model. It counts as in vivo, CD1/nude mice. The note with it: PC-3-MSF-A vs PC-3-Neo tumors. On the procedure:
FIG. 28 is a graph depicting the effect of MSF-A over-expression on tumor volume. A prostate cancer xenograft model was established using PC-3-Neo and PC-3-MSF-A cells (3×10^6) which were implanted subcutaneously into the right hind of nude mice. PBS was used as a negative control. Animals were monitored for tumor volume measurements. Tumor volume measurements were calculated using the formula width^2×length×0.52. Mean±SEM (n=5) of representative experiments is shown.
FIG. 29 is a graph depicting the effect of MSF-A over-expression on tumor weight. A prostate cancer xenograft model was established as described in FIG. 28. Mice were sacrificed after 6 weeks and tumors were processed for tumor weight measurements. Tumors were weighed immediately after dissection. Columns, means; bars, SEM; n=5; *, p<0.05.
FIGS. 30a-h are photomicrographs (FIGS. 30a-f) and graphs (FIGS. 30g-h) depicting MSF-A over-expression in tumors and angiogenesis in a prostate cancer xenograft model. […] FIG. 30g—Ki67 staining (%) was quantified by dividing the number of positive nuclei by the number of total nuclei in 40× magnification field multiplied by 100, of 5 paraffin-embedded tumor sections from each animal per group. […] FIG. 30h—Microvessel density (MVD) was determined by counting the capillaries positive for CD34 staining in 4× magnification field per total section area excluding necrotic areas in 5 paraffin-embedded tumor sections from each animal per group. […]
Immunohistochemistry with anti-CD34 and anti-Ki67—For immunohistochemical staining paraffin-embedded tissue was sectioned at 3 μm and mounted on Superfrost/plus slides (Menzel-Glaser, Braunschweig, Germany). […] For quantitative analysis of Ki67 and CD34 staining, positive staining cells and microvessels were counted and their density expressed as the number of positive cells per total number of cells or capillaries per total section area excluding necrotic areas, respectively. […]

T1 sequence (Q16665 whole entry): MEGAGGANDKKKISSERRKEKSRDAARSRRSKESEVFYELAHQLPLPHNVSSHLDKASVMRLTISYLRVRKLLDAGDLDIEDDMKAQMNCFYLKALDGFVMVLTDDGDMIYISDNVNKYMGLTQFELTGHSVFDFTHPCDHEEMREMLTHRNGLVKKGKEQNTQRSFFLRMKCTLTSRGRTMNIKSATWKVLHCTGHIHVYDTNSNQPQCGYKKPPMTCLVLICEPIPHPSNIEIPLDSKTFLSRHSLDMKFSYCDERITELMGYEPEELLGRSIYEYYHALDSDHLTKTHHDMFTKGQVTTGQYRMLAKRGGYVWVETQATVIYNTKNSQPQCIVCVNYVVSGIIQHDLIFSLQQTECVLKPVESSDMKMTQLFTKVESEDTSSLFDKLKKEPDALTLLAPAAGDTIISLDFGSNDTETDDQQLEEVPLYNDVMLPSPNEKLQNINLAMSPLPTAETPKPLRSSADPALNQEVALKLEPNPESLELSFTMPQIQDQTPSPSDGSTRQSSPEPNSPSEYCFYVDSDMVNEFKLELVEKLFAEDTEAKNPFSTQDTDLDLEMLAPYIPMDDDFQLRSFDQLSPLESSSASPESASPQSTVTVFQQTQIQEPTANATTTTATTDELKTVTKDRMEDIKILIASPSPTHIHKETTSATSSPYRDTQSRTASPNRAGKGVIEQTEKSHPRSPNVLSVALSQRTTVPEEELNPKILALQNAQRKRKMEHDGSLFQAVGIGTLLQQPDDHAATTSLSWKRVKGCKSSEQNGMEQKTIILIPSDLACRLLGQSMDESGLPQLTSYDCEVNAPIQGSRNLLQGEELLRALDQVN

B1: MSF-A: myeloid/lymphoid leukemia septin-like fusion protein A (SEQ ID NO:3), over-expressed from the p3xFlag-MSF-A vector (protein, listed as Homo sapiens)
chain: MKKSYSGGTRTSSGRLRRLGDSSGPALKRSFEVEEVETPNSTPPRRVQTPLLRATVASSTQKFQDLGVKNSEPSARHVDSLSQRSPKASLRRVELSGPKAAEPVSRRTELSIDISSKQVENAGAIGPSRFGLKRAEVLGHKTPEPAPRRTEITIVKPQESAHRRMEPPASKVPEVPTAPATDAAPKRVEIQMPKPAEAPTAPSPAQTLENSEPAPVSQLQSRLEPKPQPPVAEATPRSQEATEAAPSCVGDMADTPRDAGLKQAPASRNEKAPVDFGYVGIDSILEQMRRKAMKQGFEFNIMVVGQSGLGKSTLINTLFKSKISRKSVQPTSEERIPKTIEIKSITHDIEEKGVRMKLTVIDTPGFGDHINNENCWQPIMKFINDQYEKYLQEEVNINRKKRIPDTRVHCCLYFIPATGHSLRPLDIEFMKRLSKVVNIVPVIAKADTLTLEERVHFKQRITADLLSNGIDVYPQKEFDEDSEDRLVNEKFREMIPFAVVGSDHEYQVNGKRILGRKTKWGTIEVENTTHCEFAYLRDLLIRTHMQNIKDITSSIHFEAYRVKRLNEGSSAMANGVEEKEPEAPEM
modifications: 3xFlag tag
B1: in the experiment with HIF-1α protein, the “association with HIF-1α protein (co-immunoprecipitation)” value is recorded as “strong association”. In the experiment on PC-3 xenograft tumors, the “intratumoral cell proliferation (Ki67) and vascular density (CD34)” value is “significantly increased”. Moreover, the mean tumor weight result in the experiment with PC-3 xenograft tumors (after 6 weeks) is “significantly heavier”. Further, the “increase of mean tumor volume” value with PC-3 xenograft tumors (s.c., nude mice, not statistically significant) is given as “about 2 fold”.
